The values below come from publication doi:10.1101/2025.10.16.682781.

Common to all, as to experiment: ITC
Test [1] addresses FusB-CTD D322N (Pectobacterium carotovorum LMG2410).
Test [2] deals with FusB-CTD wild type (C-terminal domain of the TonB homologue FusB of Pectobacterium carotovorum LMG2410) (Pectobacterium carotovorum LMG2410).
Test [3] deals with FusB-CTD R241A (Pectobacterium carotovorum LMG2410).
Test [4] addresses FusB-CTD R241K (Pectobacterium carotovorum LMG2410).

For the substance FusANTR-GFP D53A (domain or fragment), the dissociation constant (Kd) (commonly the concentration at which binding is half-saturated) in test [1] amounted to 31.8 mM; in test [2] it was 31.6 mM.

Turning to “FusANTR-GFP wild type (GFP fusion construct containing the N-terminal region, residues 21-66, of FusA) (domain or fragment)”, the dissociation constant Kd worked out at 38.8 mM in test [3], 0.0094 mM in test [1] and 25.3 mM in test [4].

Substance “SpFer E93A/E94A (from UniProt P00221 51-147) (natural protein)” showed a dissociation constant Kd in test [2] of 31.3 mM.

Take SpFer F64Y (natural protein): the Kd in test [2] was found to be 30.7 mM.
